Measured values: patent US20230049752A1 (University of California, published 2023)

How the values were obtained:
[1] = molecular target: human Claudin-6 (CLDN6) (human) (UniProt P56747); assay: FACS, limiting dilution, ARK2 cells
[2] = molecular target: human Claudin-6 (CLDN6) (human) (UniProt P56747); assay: FACS, limiting dilution, OV90 cells
[3] = molecular target: human Claudin-6 (CLDN6) (human) (UniProt P56747); assay: FACS, limiting dilution, UMUC4 cells

FACS signal at 0.32 nM [1]	FACS signal at 1.6 nM [1]	FACS signal at 8 nM [1]	FACS signal at 40 nM [1]	FACS signal at 200 nM [1]	FACS signal at 1000 nM [1]	FACS signal at 0.32 nM [2]	FACS signal at 1.6 nM [2]	FACS signal at 8 nM [2]	FACS signal at 40 nM [2]	FACS signal at 200 nM [2]	FACS signal at 1000 nM [2]	FACS signal at 0.32 nM [3]	FACS signal at 1.6 nM [3]	FACS signal at 8 nM [3]	FACS signal at 40 nM [3]	FACS signal at 200 nM [3]	FACS signal at 1000 nM [3]	Binder
2080	7690	27500	68200			862	4690	16300	50400	87900		874	2540	6850	9940	22200	35100	AB S10 (antibody, V domains shown) VH: QVQLVQSGAEVKKPGASVKMSCKASGYTFTTYTMHWVRQAPGQGLEWIGFINPSSGYTEYAQKFQGRVTLTADKSTSTVYMELSSLRSEDTAVYYCANGDYYVGYWGQGTLVTVSS VL: DIQLTQSPSSLSASVGDRVTMTCTASSSVSSTYFHWYQQKPGKAPKLWIYSTSNLASGVPSRFSGSGSGTDYTLTISSMQPEDAATYYCHQYHRSPLTFGQGTKLEIK
2130	6100	20200	59400			1460	4950	14700	44900	85600		2350	2770	7000	12800	19900	33400	AB S11 (antibody, V domains shown) VH: QVQLVQSGAEVKKPGASVKMSCKASGYTFTTYTIHWVRQAPGQGLEWIGVINPSSGYTEYAQKFQGRVTLTADKSTSTVYMELSSLRSEDTAVYFCANGDYYVAYWGQGTLVTVSS VL: DIQLTQSPSSLSASVGDRVTMTCTASSSVSSTYFHWYQQKPGKAPKLWIYSTSNLASGVPSRFSGSGSGTDYTLTISSMQPEDAATYYCHQYHRSPLTFGQGTKLEIK
2990	16400	54600				2940	14000	48500				1910	11600	19200	23900	35600		AB S9 (antibody, V domains shown) VH: QVQLVQSGAEVKKPGASVKMSCKASGYTFTTYTIHWVRQAPGQGLEWIGVINPSSGYTDYAQKFQGRVTLTADKSTSTVYMELSSLRSEDTAVYFCANGDYYVGYWGQGTLVTVSS VL: DIQLTQSPSSLSASVGDRVTMTCTASSSVSSTYFHWYQQKPGKAPKLWIYSTSNLASGVPSRFSGSGSGTDYTLTISSMQPEDAATYYCHQYHRSPLTFGQGTKLEIK

Continued, binder first:

Binder	FACS signal at 0.32 nM [1]	FACS signal at 1.6 nM [1]	FACS signal at 8 nM [1]	FACS signal at 40 nM [1]	FACS signal at 200 nM [1]	FACS signal at 1000 nM [1]	FACS signal at 0.32 nM [2]	FACS signal at 1.6 nM [2]	FACS signal at 8 nM [2]	FACS signal at 40 nM [2]	FACS signal at 200 nM [2]	FACS signal at 1000 nM [2]	FACS signal at 0.32 nM [3]	FACS signal at 1.6 nM [3]	FACS signal at 8 nM [3]	FACS signal at 40 nM [3]	FACS signal at 200 nM [3]	FACS signal at 1000 nM [3]
AB S4 (antibody, V domains shown) VH: EVQLLESGGGLVQPGGSMRLSCAASGFTFSNYWMNWVRQAPGKGLEWIAQIRLKSDNYATHYTDSVKGRFTISRDDSKSTVYLQMNSLRAEDTGTYYCNDGPPSGSWGQGTLLTVSS VL: DIQMTQSPSSLSASVGDRVTITCRISENIYSYLAWYQQKPGKAPKLLVYNAKILVEGVPSRFSGSGSGTDFTLTISSLQPEDFGTYYCQHHYTVPWTFGQGTKLEIK	354	438	1720	6350	31500	62500	432	515	1360	4590	15900	42000	518	651	1300	4120	13500	35000
AB S6 (antibody, V domains shown) VH: EVQLLESGGGLVQPGGSMRLSCAASGFTFSNYWMNWVRQAPGKGLEWLAQIRLKSDNYVTHYADSVKGRFTISRDDSKRTVYLQMNSLRAEDTGTYYCNDGPPSGSWGQGTLLTVSS VL: DIQMTQSPSSLSASVGDRVTITCRISENIYSYLAWYQQKPGKAPKLLVYNAKILVEGVPSRFSGSGSGTDFTLTISSLQPEDFGTYYCQHHYTVPWTFGQGTKLEIK	448	765	3800	14600	54100		467	791	2950	12600	38600	76600	1320	1690	3300	4120	12500	42300
AB S5 (antibody, V domains shown) VH: EVQLLESGGGLVQPGGSMRLSCAASGFTFSNYWMNWVRQAPGKGLEWLAQIRLKSDNYATHYTDSVKGRFTISRDDSKRTVYLQMNSLRAEDTGIYYCSDGPPSGSWGQGTLLTVSS VL: DIQMTQSPSSLSASVGDRVTITCRISENIYSYLAWYQQKPGKAPKLLVYNAKILVEGVPSRFSGSGSGTDFTLTISSLQPEDFGTYYCQHHYTVPWTFGQGTKLEIK	372	997	5560	25600	78800		558	1040	5220	22500	73300		481	885	2340	7080	19000	47200
AB S7 (antibody, V domains shown) VH: QVQLVQSGAEVKKPGASVKMSCKASGYTFTTYTIHWVRQAPGQGLEWIGFINPSSGYTEYAQKFQGRVTLTADKSTSTVYMELSSLRSEDTAVYFCANGDYYVAYWGQGTLVTVSS VL: DIQLTQSPSSLSASVGDRVTMTCTASSSVSSTYFHWYQQKPGKAPKLWIYSTSNLASGVPSRFSGSGSGTDYTLTISSMQPEDAATYYCHQYHRSPLTFGQGTKLEIK	876	2350	6290	16000	47000	78700	586	1910	4500	8570	24000	53900	1440	1790	3940	7970	16700	37300
AB S8 (antibody, V domains shown) VH: QVQLVQSGAEVKKPGASVKMSCKASGYTFTTYTMHWVRQAPGQGLEWIGVINPSSGYTEYAQKFQGRVTLTADKSTSTVYMELSSLRSEDTAVYFCANGDYYVGYWGQGTLVTVSS VL: DIQLTQSPSSLSASVGDRVTMTCTASSSVSSTYFHWYQQKPGKAPKLWIYSTSNLASGVPSRFSGSGSGTDYTLTISSMQPEDAATYYCHQYHRSPLTFGQGTKLEIK	1640	10400	42600				834	6410	26700	85900			720	6220	7200	16600	32900	40500
